{"source": "paper PMC5538295", "molecular_target": "FMRP (rat, UniProt Q80WE1 1-593)", "assay": "EMSA; 150 mM KCl, tRNA; three shifted bands; Filter binding: 10 mM Tris pH 7.5, 50 mM KCl, 1 mM DTT, room temperature; REMSA: 20 mM HEPES pH 7.6, 150 mM KCl, 0.5 mM DTT, 5% glycerol, 50 ng/ul tRNA, room te", "data": [{"binder": "human MMP-9 wild-type probe (ssRNA) RNA: GUUCUGGAGGAAAGGGAGGAGUGGAGGUGGGCUGGGCCCUCUCUUCUCACCUUUGUUUUUUGUUGGAGUGUUUCUAAU", "values": [{"measurement": "binding result", "result": "binds"}]}]}
